Experimental data: US20240116985A1 (published 2024)
Starred links: 1 amine or outer side, 2 acyl side, 3 side chain; linkers in the order of their positions; H or OH if unused. Positions of bridges follow the written chain, without caps; N, C: chain ends. Non-standard residues stand in square brackets, D forms with d. Primed or numbered codes have the meaning given here. PyrS2″ = (S)-3-amino-1-((pent-4-en-1-yloxy)carbonyl)pyrrolidine-3-carboxylic acid (stapling residue), C=CCCCOC(=O)N1CC[C@@](N[*:1])(C(=O)[*:2])C1; B5(4) = 2,2-bis(4-pentenyl)glycine = 2-amino-2-(pent-4-en-1-yl)hept-6-enoic acid (stitching residue), C=CCCCC(CCCC=C)(N[*:1])C(=O)[*:2]; TfeGA = (S)-2-amino-3-((carboxymethyl)(2,2,2-trifluoroethyl)amino)propanoic acid, O=C([C@H](CN(CC(=O)[*:3])CC(F)(F)F)N[*:1])[*:2]; B5(3) = 2,2-bis(4-pentenyl)glycine (stitching residue), C=CCCCC(CCCC=C)(N[*:1])C(=O)[*:2]; Phe(3-COOH) = N[C@@H](Cc1cccc(C(=O)O)c1)C(=O)O; Phe(2-Cl) = N[C@@H](Cc1ccccc1Cl)C(=O)O; Bta = N[C@@H](Cc1csc2ccccc12)C(=O)O; αAllylPro = C=CC[C@@]1(C(=O)O)CCCN1; tBuAla = CC(C)(C)C[C@H](N)C(=O)O; 3Thi = N[C@@H](Cc1ccsc1)C(=O)O; PyrS2(4) = not defined here; TfeGA″ = not defined here

T1: beta-catenin in DLD1 TCF/LEF luciferase reporter cells (UniProt P35222 1-781)
T1 sequence (looked up): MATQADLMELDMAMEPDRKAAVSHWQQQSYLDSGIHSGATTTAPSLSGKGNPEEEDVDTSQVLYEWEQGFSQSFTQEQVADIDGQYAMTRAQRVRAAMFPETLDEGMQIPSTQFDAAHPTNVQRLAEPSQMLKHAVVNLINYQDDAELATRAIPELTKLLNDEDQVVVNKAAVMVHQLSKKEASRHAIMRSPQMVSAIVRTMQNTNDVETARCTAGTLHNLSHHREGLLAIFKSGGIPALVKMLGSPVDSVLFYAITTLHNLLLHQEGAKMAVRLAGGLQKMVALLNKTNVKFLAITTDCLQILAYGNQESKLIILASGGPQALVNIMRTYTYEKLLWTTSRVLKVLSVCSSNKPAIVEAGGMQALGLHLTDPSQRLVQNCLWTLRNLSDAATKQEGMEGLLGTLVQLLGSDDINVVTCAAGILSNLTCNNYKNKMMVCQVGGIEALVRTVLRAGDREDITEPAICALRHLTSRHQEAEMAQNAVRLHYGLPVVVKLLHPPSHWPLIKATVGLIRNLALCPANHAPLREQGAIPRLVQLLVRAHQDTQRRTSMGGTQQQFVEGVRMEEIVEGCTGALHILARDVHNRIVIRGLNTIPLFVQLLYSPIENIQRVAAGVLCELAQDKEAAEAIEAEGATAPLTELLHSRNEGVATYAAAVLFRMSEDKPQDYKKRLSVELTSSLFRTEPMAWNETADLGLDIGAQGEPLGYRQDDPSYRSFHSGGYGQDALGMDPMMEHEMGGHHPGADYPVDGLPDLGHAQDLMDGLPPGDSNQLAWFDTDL

T2: B-cat-Halo (UniProt P35222 1-781)
T2 sequence (looked up): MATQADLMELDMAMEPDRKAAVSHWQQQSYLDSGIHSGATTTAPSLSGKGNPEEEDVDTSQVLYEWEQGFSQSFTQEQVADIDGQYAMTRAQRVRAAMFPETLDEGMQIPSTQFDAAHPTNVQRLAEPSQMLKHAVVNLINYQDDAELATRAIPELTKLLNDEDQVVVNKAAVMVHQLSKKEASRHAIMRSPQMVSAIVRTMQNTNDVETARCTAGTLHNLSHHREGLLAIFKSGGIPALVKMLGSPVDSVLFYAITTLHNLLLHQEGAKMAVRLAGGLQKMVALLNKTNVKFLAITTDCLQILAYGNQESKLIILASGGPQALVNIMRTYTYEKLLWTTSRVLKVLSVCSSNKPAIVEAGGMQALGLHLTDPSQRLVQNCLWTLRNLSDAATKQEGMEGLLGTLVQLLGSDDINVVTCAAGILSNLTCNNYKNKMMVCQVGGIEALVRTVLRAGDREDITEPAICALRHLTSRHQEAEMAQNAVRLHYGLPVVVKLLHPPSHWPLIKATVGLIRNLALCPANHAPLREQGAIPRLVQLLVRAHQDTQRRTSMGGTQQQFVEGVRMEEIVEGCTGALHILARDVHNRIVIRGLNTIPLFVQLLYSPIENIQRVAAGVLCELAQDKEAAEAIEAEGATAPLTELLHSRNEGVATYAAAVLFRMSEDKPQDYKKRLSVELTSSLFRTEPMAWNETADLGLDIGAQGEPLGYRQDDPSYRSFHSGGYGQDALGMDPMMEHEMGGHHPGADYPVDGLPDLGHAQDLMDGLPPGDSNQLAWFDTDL

T3: B-cat-Halo (Homo sapiens (Human), UniProt P35222 1-781)
T3 sequence: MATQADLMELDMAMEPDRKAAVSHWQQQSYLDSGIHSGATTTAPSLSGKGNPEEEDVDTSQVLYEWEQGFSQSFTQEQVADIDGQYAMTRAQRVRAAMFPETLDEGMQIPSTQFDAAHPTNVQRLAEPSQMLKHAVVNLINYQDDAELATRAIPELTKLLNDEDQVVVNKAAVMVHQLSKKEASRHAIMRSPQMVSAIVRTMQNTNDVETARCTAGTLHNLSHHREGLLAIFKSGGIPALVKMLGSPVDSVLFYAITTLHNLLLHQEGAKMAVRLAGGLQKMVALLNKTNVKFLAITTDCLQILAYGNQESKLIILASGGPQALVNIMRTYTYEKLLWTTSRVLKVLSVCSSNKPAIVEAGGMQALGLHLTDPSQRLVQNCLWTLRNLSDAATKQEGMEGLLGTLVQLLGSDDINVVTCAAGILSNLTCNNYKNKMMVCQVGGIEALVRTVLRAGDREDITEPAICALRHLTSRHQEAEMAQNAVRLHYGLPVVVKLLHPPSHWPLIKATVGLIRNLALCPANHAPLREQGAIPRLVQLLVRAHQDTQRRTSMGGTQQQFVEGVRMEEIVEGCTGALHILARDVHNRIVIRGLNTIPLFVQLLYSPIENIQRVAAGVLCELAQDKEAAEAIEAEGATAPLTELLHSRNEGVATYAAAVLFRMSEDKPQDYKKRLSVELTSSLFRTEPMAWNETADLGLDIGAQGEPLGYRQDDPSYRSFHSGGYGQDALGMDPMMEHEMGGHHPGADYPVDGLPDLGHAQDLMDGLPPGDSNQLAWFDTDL

T4: beta-catenin in DLD1 TCF/LEF luciferase reporter cells (Homo sapiens (Human), UniProt P35222 1-781)
T4 sequence: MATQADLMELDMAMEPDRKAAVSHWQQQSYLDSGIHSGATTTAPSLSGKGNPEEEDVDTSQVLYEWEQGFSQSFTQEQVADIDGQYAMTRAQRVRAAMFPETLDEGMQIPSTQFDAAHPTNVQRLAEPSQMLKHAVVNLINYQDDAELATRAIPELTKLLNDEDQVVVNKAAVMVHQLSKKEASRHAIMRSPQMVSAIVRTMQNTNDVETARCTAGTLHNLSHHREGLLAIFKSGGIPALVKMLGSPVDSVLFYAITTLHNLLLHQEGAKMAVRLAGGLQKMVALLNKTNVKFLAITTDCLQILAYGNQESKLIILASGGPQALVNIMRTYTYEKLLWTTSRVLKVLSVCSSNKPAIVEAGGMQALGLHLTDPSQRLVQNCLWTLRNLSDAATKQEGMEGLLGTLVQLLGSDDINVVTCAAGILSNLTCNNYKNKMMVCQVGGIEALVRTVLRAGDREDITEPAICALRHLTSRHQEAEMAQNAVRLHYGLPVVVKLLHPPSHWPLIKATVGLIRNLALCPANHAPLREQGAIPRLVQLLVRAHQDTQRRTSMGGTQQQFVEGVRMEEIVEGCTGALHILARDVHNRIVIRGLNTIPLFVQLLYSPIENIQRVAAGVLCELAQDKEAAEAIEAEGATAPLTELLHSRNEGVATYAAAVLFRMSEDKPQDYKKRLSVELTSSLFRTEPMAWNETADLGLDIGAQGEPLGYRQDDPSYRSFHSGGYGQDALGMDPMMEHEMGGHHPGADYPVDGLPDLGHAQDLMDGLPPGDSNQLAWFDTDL

T5: Bcat-Halo (beta-catenin HaloTag construct transfected into HEK293 cells) (UniProt P35222 1-781)
T5 sequence (looked up): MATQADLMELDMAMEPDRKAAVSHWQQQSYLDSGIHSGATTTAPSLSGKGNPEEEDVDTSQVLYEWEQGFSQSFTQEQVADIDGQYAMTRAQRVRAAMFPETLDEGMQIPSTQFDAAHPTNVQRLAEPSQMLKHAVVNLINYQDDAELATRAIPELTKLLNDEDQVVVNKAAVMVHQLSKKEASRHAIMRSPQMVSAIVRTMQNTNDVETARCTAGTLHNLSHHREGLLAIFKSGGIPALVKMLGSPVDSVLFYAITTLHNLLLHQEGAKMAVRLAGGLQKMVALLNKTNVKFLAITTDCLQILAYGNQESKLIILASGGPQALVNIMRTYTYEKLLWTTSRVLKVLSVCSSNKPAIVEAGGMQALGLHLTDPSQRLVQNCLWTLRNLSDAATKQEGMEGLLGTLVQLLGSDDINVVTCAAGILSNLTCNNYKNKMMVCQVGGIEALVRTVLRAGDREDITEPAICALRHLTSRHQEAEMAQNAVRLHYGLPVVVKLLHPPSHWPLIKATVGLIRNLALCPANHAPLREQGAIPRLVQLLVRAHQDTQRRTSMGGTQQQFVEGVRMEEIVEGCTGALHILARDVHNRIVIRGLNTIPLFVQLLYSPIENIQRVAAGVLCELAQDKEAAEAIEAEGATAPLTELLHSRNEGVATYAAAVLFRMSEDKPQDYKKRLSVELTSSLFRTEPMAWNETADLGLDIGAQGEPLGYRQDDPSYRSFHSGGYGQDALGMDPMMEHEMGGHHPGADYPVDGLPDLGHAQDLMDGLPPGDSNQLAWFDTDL

T6: beta-catenin in DLD1 TCF/LEF luciferase reporter cells (UniProt P35222 1-781)
T6 sequence (looked up): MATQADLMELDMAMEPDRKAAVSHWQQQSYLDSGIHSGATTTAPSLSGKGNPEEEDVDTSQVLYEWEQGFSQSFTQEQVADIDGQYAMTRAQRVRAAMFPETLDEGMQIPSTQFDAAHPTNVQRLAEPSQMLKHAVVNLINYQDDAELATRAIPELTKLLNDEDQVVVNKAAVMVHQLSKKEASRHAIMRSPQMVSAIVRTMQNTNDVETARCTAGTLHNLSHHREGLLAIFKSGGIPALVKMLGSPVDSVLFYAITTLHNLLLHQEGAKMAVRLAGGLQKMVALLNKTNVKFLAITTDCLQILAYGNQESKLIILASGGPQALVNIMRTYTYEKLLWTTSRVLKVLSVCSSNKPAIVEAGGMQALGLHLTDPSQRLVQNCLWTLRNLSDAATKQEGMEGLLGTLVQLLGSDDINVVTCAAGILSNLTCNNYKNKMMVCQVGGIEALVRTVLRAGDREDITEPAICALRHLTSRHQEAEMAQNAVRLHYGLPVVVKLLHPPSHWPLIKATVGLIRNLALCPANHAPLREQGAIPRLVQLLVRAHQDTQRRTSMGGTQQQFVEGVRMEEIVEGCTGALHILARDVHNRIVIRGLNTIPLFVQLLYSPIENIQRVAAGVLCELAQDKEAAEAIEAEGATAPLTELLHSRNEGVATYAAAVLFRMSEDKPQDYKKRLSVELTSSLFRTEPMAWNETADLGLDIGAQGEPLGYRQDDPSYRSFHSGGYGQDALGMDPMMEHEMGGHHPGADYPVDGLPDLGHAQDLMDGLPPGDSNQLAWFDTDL


Legend:
Assay in all cases: cell-based or functional assay
[1] = molecular target: T1, beta-catenin in DLD1 TCF/LEF luciferase …
B-cat-Halo [2] = molecular target: T2, B-cat-Halo
B-cat-Halo [3] = molecular target: T3, B-cat-Halo
[4] = molecular target: T4, beta-catenin in DLD1 TCF/LEF luciferase …
[5] = molecular target: T5, Bcat-Halo (beta-catenin HaloTag …)
[6] = molecular target: T6, beta-catenin in DLD1 TCF/LEF luciferase …; remark: listed apart in the source

Binder | DLD1 4% Abs IC50 [1] [nM] | NanoBRET Abs IC50 (B-cat-Halo [2]) [nM] | DLD1 4% Abs IC50 [4] [nM] | further results
Ac-[αAllylPro]D[tBuAla][B5(4)]D[TfeGA″]AAFL[PyrS2″][3Thi][Bta]T-NH2 (staple 1-4, 4-11; reading uncertain) [I-1706] | 2700 | 4800 | – | –
Ac-[αAllylPro]D[tBuAla][B5(3)]D[Phe(3-COOH)]AAFL[PyrS2(4)][3Thi][Bta]NAA[dA]-NH2 (staple 1-4, 4-11; reading uncertain) [I-2047] | – | – | 1300 | NanoBRET Abs IC50 (B-cat-Halo [3]): 2600 nM
Ac-[αAllylPro]D[tBuAla][B5(4)]D[TfeGA]AAFL[PyrS2″][3Thi][Bta]A-NH2 (staple 1-4, 4-11) [I-1710] | 1900 | 3900 | – | –
Ac-[αAllylPro]D[tBuAla][B5(4)]D[Phe(3-COOH)]AAFL[PyrS2″][3Thi][Bta]Q-NH2 (staple 1-4, 4-11) [I-1462] | – | – | – | NanoBRET Abs IC50 [5]: 2300 nM; DLD1 4% Abs IC50 [6]: 2700 nM
Ac-[αAllylPro]D[tBuAla][B5(3)]D[Phe(3-COOH)]AAFL[PyrS2″][Phe(2-Cl)][Bta]NAA[dA]-NH2 (staple 1-4, 4-11) [I-2041] | – | – | 1900 | –
